Experimental data reported in US20050058747.

Tests used:
[1] = biological target: Soybean agglutinin (SBA), P05046
[2] = biological target: T1, soybean Bowman-Birk inhibitor, P01055
T1 chain: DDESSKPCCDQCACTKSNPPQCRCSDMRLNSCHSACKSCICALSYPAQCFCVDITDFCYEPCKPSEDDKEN

[3] = biological target: T2, soybean Kunitz trypsin inhibitor, P01070
T2 chain: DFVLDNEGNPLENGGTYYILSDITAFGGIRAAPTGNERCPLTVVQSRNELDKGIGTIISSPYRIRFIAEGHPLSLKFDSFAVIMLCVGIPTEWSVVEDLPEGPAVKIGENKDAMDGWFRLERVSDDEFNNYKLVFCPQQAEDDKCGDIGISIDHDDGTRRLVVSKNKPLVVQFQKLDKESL

Sequence of Soybean agglutinin (SBA), P05046 (P05046 33-285): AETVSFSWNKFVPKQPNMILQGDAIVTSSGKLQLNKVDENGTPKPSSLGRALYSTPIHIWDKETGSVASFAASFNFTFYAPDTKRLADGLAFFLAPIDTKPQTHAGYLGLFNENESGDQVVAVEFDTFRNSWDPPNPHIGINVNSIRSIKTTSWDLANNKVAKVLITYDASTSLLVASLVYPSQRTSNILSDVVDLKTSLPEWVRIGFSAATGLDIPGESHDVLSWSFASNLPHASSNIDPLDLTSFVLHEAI

B1: protease of the invention having amino acids 1-188 of SEQ ID NO: 2 (protease derived from Nocardiopsis dassonvillei subsp. dassonvillei DSM 43235) (protein)
chain: ADIIGGLAYYMGGRCSVGFAATNSAGQPGFVTAGHCGTVGTGVTIGNGTGTFQNSVFPGNDAAFVRGTSNFTLTNLVSRYNSGGYQSVTGTSQAPAGSAVCRSGSTTGWHCGTIQARNQTVRYPQGTVYSLTRTNVCAEPGDSGGSFISGSQAQGVTSGGSGNCSVGGTTYYQEVTPMINSWGVRIRT
Percentage degradation of isolated soy proteins [1]: 95% | Percentage degradation of isolated soy proteins (Soybean beta-conglycinin): 100% | Percentage degradation of isolated soy proteins (Soybean glycinin): 100% | Percentage degradation of isolated soy proteins [2]: 81% | Percentage degradation of isolated soy proteins [3]: 97%
